Results: the supplement of paper PMC9112550, “Optimization of the antimicrobial peptide Bac7 by deep mutational scanning” (BMC Biology, 2022)

Tested on: Escherichia coli TOP10
Test: shrunken log2 fold change of peptide-encoding DNA abundance (4.5 h post-induction vs induction); higher = less antimicrobial activity (less host growth inhibition)
Details: time post-induction: 4.5 h; library: site-saturation at positions 5, 18, 19, 20
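Note: peptides expressed intracellularly from a pBAD plasmid library in pooled LB shake-flask culture, induced with 0.3% L-arabinose, DNA abundance read by NGS, three biological replicates, DESeq2 with apeglm shrinkage.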

Row | Sequence | shrunken log2 fold change
1 | RRIRWRPPRLPRPRPRPEQQPRP | 1.39
2 | RRIRWRPPRLPRPRPRPWWGPRP | 0.0568
3 | RRIRIRPPRLPRPRPRPTNNPRP | -0.629
4 | RRIRFRPPRLPRPRPRPKCYPRP | -0.233
5 | RRIRDRPPRLPRPRPRPKHNPRP | -0.0986
6 | RRIRLRPPRLPRPRPRPASMPRP | -0.357
7 | RRIRDRPPRLPRPRPRPFWAPRP | 0.141
8 | RRIRIRPPRLPRPRPRPGTPPRP | -0.0727
9 | RRIRSRPPRLPRPRPRPDSKPRP | 1.02
10 | RRIRFRPPRLPRPRPRPFVYPRP | -0.413
11 | RRIRFRPPRLPRPRPRPRMRPRP | 0.608
12 | RRIRPRPPRLPRPRPRPCYRPRP | -0.154
13 | RRIRSRPPRLPRPRPRPVLPPRP | -0.167
14 | RRIRSRPPRLPRPRPRPGCTPRP | 0.22
15 | RRIRERPPRLPRPRPRPPFQPRP | 0.016
16 | RRIRRRPPRLPRPRPRPDADPRP | 1.78
17 | RRIRNRPPRLPRPRPRPSWGPRP | -0.139
18 | RRIRERPPRLPRPRPRPCQLPRP | -0.265
19 | RRIRKRPPRLPRPRPRPLALPRP | 0.536
20 | RRIRFRPPRLPRPRPRPKWPPRP | 0.27
21 | RRIRERPPRLPRPRPRPVSEPRP | 0.164
22 | RRIRDRPPRLPRPRPRPWVEPRP | 0.105
23 | RRIRPRPPRLPRPRPRPARYPRP | 0.19

Row | Sequence | shrunken log2 fold change
24 | RRIRTRPPRLPRPRPRPCHEPRP | -0.0167
25 | RRIRDRPPRLPRPRPRPWGDPRP | 0.13
26 | RRIRYRPPRLPRPRPRPSHCPRP | -0.549
27 | RRIRGRPPRLPRPRPRPYRFPRP | 0.0893
28 | RRIRMRPPRLPRPRPRPYMAPRP | -0.162
29 | RRIRFRPPRLPRPRPRPDSKPRP | -0.788
30 | RRIRYRPPRLPRPRPRPWIWPRP | -0.000921
31 | RRIRVRPPRLPRPRPRPHEKPRP | 0.0571
32 | RRIRTRPPRLPRPRPRPLQWPRP | 0.206
33 | RRIRTRPPRLPRPRPRPIHRPRP | -0.00127
34 | RRIRPRPPRLPRPRPRPCQTPRP | 0.0185
35 | RRIRCRPPRLPRPRPRPYEHPRP | -0.554
36 | RRIRQRPPRLPRPRPRPVWVPRP | 0.0799
37 | RRIRARPPRLPRPRPRPQCPPRP | 0.108
38 | RRIRTRPPRLPRPRPRPSYNPRP | -0.591
39 | RRIRFRPPRLPRPRPRPEEEPRP | 0.78
40 | RRIRIRPPRLPRPRPRPIKAPRP | -0.38
41 | RRIRLRPPRLPRPRPRPPLFPRP | 0.412
42 | RRIRDRPPRLPRPRPRPSTLPRP | -0.267
43 | RRIRYRPPRLPRPRPRPCGRPRP | -0.00865
44 | RRIRERPPRLPRPRPRPKGGPRP | -0.0194
45 | RRIRSRPPRLPRPRPRPTMRPRP | 0.881
46 | RRIRCRPPRLPRPRPRPFFFPRP | 0.101

Row | Sequence | shrunken log2 fold change
47 | RRIRFRPPRLPRPRPRPKRYPRP | 0.0178
48 | RRIRARPPRLPRPRPRPLWYPRP | -0.278
49 | RRIRHRPPRLPRPRPRPTDNPRP | -0.177
50 | RRIRCRPPRLPRPRPRPSWNPRP | -0.68
51 | RRIRIRPPRLPRPRPRPFPDPRP | -0.131
52 | RRIRKRPPRLPRPRPRPSTTPRP | 0.162
53 | RRIRIRPPRLPRPRPRPSKLPRP | -1.04
54 | RRIRWRPPRLPRPRPRPDEMPRP | -0.0412
55 | RRIRFRPPRLPRPRPRPRLTPRP | -0.212
56 | RRIRNRPPRLPRPRPRPEVVPRP | -0.252
57 | RRIRWRPPRLPRPRPRPENLPRP | 0.0583
58 | RRIRDRPPRLPRPRPRPFDEPRP | 0.0788
59 | RRIRDRPPRLPRPRPRPVCAPRP | 1.12
60 | RRIRHRPPRLPRPRPRPHQVPRP | -0.00848
61 | RRIRTRPPRLPRPRPRPGQSPRP | -0.267
62 | RRIRTRPPRLPRPRPRPAKIPRP | 0.0299
63 | RRIRSRPPRLPRPRPRPTFGPRP | -0.0366
64 | RRIRTRPPRLPRPRPRPLDKPRP | -0.18
65 | RRIRIRPPRLPRPRPRPWWCPRP | -0.196
66 | RRIRSRPPRLPRPRPRPEKFPRP | -0.146
67 | RRIRVRPPRLPRPRPRPFPRPRP | 0.0135
68 | RRIRERPPRLPRPRPRPAYWPRP | 0.000956
69 | RRIRWRPPRLPRPRPRPNPDPRP | 0.167

Row | Sequence | shrunken log2 fold change
70 | RRIRDRPPRLPRPRPRPISNPRP | -0.175
71 | RRIRKRPPRLPRPRPRPQHGPRP | 0.205
72 | RRIRCRPPRLPRPRPRPQDLPRP | -0.472
73 | RRIRWRPPRLPRPRPRPDGAPRP | 0.227
74 | RRIRKRPPRLPRPRPRPQCGPRP | 0.0718
75 | RRIRWRPPRLPRPRPRPPEKPRP | 0.269
76 | RRIRFRPPRLPRPRPRPVNYPRP | 0.184
77 | RRIRMRPPRLPRPRPRPKPSPRP | 1.4
78 | RRIRWRPPRLPRPRPRPMAAPRP | 0.318
79 | RRIRARPPRLPRPRPRPHGCPRP | 0.128
80 | RRIRIRPPRLPRPRPRPGHVPRP | -0.0457
81 | RRIRWRPPRLPRPRPRPSYQPRP | -1.04
82 | RRIRFRPPRLPRPRPRPIDWPRP | -0.0094
83 | RRIRDRPPRLPRPRPRPQNVPRP | -0.01
84 | RRIRVRPPRLPRPRPRPVVAPRP | 0.17
85 | RRIRIRPPRLPRPRPRPWFEPRP | -0.161
86 | RRIRVRPPRLPRPRPRPDMMPRP | 0.0644
87 | RRIRHRPPRLPRPRPRPACWPRP | 0.375
88 | RRIRARPPRLPRPRPRPTKWPRP | 0.4
89 | RRIRQRPPRLPRPRPRPLDVPRP | -0.0496
90 | RRIRMRPPRLPRPRPRPKSHPRP | -0.0378
91 | RRIRSRPPRLPRPRPRPLWEPRP | -0.0343
